Test [1] deals with Human SARS-CoV-2_Wuhan S (SmT1) (SARS-CoV-2 (Wuhan), UniProt P0DTC2 14-1208). The test can be described thus: flow cytometry SVNA: VHH-Fc inhibits S binding to ACE2 on Vero E6 cells. Background: A flow cytometer gives signals particle by particle.
The target of another test is Human SARS-CoV S (SARS-CoV, UniProt P59594 14-1190). The description is as above.
For test [2], the target named is T1, SARS-CoV-2 spike protein S on live virus, Wuhan (strain SARS-CoV-2/Canada/VIDO-01/2020) (SARS-CoV-2 (Wuhan), UniProt P0DTC2 14-1273). Put plainly: cell-based or functional assay.
Test [3] deals with T1, SARS-CoV-2 spike protein S on live …. The test can be described thus: cell-based or functional assay. This is another data set of the same source.
In test [4] the target is T2, Human SARS-CoV-2_Wuhan S (SmT1) (SARS-CoV-2 (Wuhan), UniProt P0DTC2 14-1208). Put plainly: flow cytometry SVNA, VHH-Fc vs biotin-S binding to Vero E6 ACE2.
Test [5] deals with T2, Human SARS-CoV-2_Wuhan S (SmT1). The test can be described thus: sandwich ELISA: biotin NRCoV2-02 VHH capture, antigen titrated, VHH-Fc detector.
Test [6] has as its target T3, SARS-CoV-2 S1-RBD (Wuhan) (SARS-CoV-2 (Wuhan), UniProt P0DTC2 319-541).
T3 construct: domain: S1-RBD
The description is as above.

In test [7] the target is T4, SARS-CoV-2 S1 (aa16-685) (Wuhan) (SARS-CoV-2 (Wuhan), UniProt P0DTC2 16-685). The description is as above.
In test [8] the target is T2, Human SARS-CoV-2_Wuhan S (SmT1). The description is as above. This is another data set of the same source.
The target of test [9] is T3, SARS-CoV-2 S1-RBD (Wuhan). The test is described as above. The source holds these as a separate data set.
Test [10] addresses T4, SARS-CoV-2 S1 (aa16-685) (Wuhan). Described as above. The source holds these as a separate data set.
Test [11] concerns the target S1-Fc (SARS-CoV-2 S1 aa16-685, Wuhan, human IgG1 Fc) (SARS-CoV-2 (Wuhan); human, UniProt P0DTC2 16-685).
Test [12] has as its target T2, Human SARS-CoV-2_Wuhan S (SmT1). Put plainly: flow cytometry SVNA, VHH vs biotin-S binding to Vero E6 ACE2.

The values that follow come from patent US20240270826A1 (NATIONAL RESEARCH COUNCIL OF CANADA, published 2024).

Several values for one entry are separate records, joined by “and”; a condition that tells them apart may be missing. Identical values can stand only once.

B1: NRCoV2-18 VHH-Fc (Fc fusion)
chain: EVQLVESGGGLVQAGGSLRLSCVASGITISGYNMAWWRQTRGKQTERVAFINSGGSTTYSDSVKGRFTISRDNGKNTAYLQMNSLNAEDTADYFCSLHTSHDYWGQGTQVTVSS
notes: bivalent VHH-Fc
Turning to B1, the IC50 in [1] amounted to 9.1 nM; with Human SARS-CoV S it was 12.7 nM.

B2: NRCoV2-07 VHH-Fc (Fc fusion)
chain: QVQLVQSGGGLVQPGGSLRLSCAASGVTLDYYAIGWFRQAPGKEREAVSCISSNGRRNHYVASVRGRFTISRDNAKSTVYLQMNSLKPEDTAVYYCAAVQDVHGDNYYCTSPNEYNVWGQGTQVTVSS
notes: bivalent VHH-Fc
For the molecule B2, the MN100 in [2] was determined as 1.25 nM. Besides, in test [3], the “LVNA IC50” value came out at 6.15 nM. Moreover, the IC50 in [4] stood at 6.8 nM. This molecule also registered a 99% effect concentration (IC99) in test [4] of 98.9 nM. In [4], this molecule showed an Imax % of 89%. In addition, the SC50 was determined as 18 ng/mL in test [5], 0.7 ng/mL in test [6] and 5 ng/mL in test [7]. The Limit of detection in test [8] came out at 1.4 ng/mL; in test [9] it was 0.08 ng/mL; in test [10], 0.46 ng/mL.

B3: NRCoV2-07 VHH (VHH)
VHH: QVQLVQSGGGLVQPGGSLRLSCAASGVTLDYYAIGWFRQAPGKEREAVSCISSNGRRNHYVASVRGRFTISRDNAKSTVYLQMNSLKPEDTAVYYCAAVQDVHGDNYYCTSPNEYNVWGQGTQVTVSS
Take B3: the concentration for a half-maximal effect (EC50) in test [11] is 1.1 nM and 1 nM. In test [12], this molecule displayed a concentration for half-maximal inhibition (IC50) of 7.5 nM, an IC99 of 65.3 nM and an Imax % of 86%.

B4: NRCoV2-02 VHH (VHH)
VHH: EVQLVESGGGLVQAGGSLRLSCAASGFTFSNYAMNWVRQAPGKGLEWVSGISGRGDDTRYADSVKGRFTISRDNAKNTLFLQMRSLRPEDTGVYRCTKGPDLYYFGSGYSDRGQGTQVTVSS
Regarding B4, it took 0.2 nM to reach a half-maximal effect in [11] (EC50). Besides, the MN100 in test [2] was 1.25 nM. In addition, in test [12], the IC50 amounted to 5.1 nM, the IC99 is 15.5 nM and the Imax % is 100%.

B5: NRCoV2-02 VHH-Fc (Fc fusion)
chain: EVQLVESGGGLVQAGGSLRLSCAASGFTFSNYAMNWVRQAPGKGLEWVSGISGRGDDTRYADSVKGRFTISRDNAKNTLFLQMRSLRPEDTGVYRCTKGPDLYYFGSGYSDRGQGTQVTVSS
notes: bivalent VHH-Fc
Molecule B5 gave an MN100 in [2] not above 0.01 nM. In addition, the “LVNA IC50” value in test [3] was found to be 0.12 nM. Also, in test [4], the half-maximal inhibitory concentration (IC50) is 5 nM, the concentration for an effect of 99% (IC99) came out at 30 nM and the Imax % was found to be 94%.

B6: NRCoV2-11 VHH-Fc (Fc fusion)
chain: EVQLVSSGGGLVQPGGSLRLSCAASGSSLDSYSVSWFRQAPGKEREWISFISRYYSSTYYTDSVKGRFTTSRDGDQKTVHLQMNSLKPEDTAVYYCAARSRDFSSPFSATDTYTSWGQGTQVTVSS
notes: bivalent VHH-Fc
Turning to B6, in test [3], the “LVNA IC50” value turned out to be 9.9 nM. In addition, in test [4], the concentration for half-maximal inhibition (IC50) was found to be 9.7 nM. Moreover, the concentration for an effect of 99% (IC99) in test [4] is 99.8 nM. For the same molecule, the Imax % in [4] came to 63%. Further, the SC50 was determined as 20 ng/mL in test [5], 0.8 ng/mL in test [6] and 6 ng/mL in test [7]. Also, the Limit of detection in test [8] was determined as 1.4 ng/mL; in test [9], 0.08 ng/mL; in test [10], 0.46 ng/mL.

B7: NRCoV2-11 VHH (VHH)
VHH: EVQLVSSGGGLVQPGGSLRLSCAASGSSLDSYSVSWFRQAPGKEREWISFISRYYSSTYYTDSVKGRFTTSRDGDQKTVHLQMNSLKPEDTAVYYCAARSRDFSSPFSATDTYTSWGQGTQVTVSS
In the case of B7, the concentration giving a half-maximal response (EC50) in test [11] was 0.2 nM.

B8: NRCoV2-11 VHH-Fc (Fc fusion)
chain: EVQLVSSGGGLVQPGGSLRLSCAASGSSLDSYSVSWFRQAPGKEREWISFISRYYSSTYYTDSVKGRFTTSRDGDQKTVHLQMNSLKPEDTAVYYCAARSRDFSSPFSATDTYTSWGQGTQVTVSS
notes: bivalent VHH-Fc
On to B8, for which the half-inhibitory concentration (IC50) in test [1] was 3.2 nM; with Human SARS-CoV S, 7.7 nM.

B9: NRCoV2-MRed04 VHH-Fc (Fc fusion)
chain: EVQLVESGGGLVQPGRSLRLSCAASGNSFSISTMGWFRQAPGKERELVASIWSDTTTSYADSVKGRFTISTDNTRTKVYLQMSSLNPEDTAVYYCAADRGFVVRGQYDYWGQGTQVTVSS
notes: bivalent VHH-Fc
B9: the figures for the IC50 (in test [1]; with Human SARS-CoV S) were 5 nM and 24.6 nM, respectively.

B10: NRCoV2-1d VHH-Fc (Fc fusion)
chain: EVQLVESGGGSVQPGGSLRLSCAASGSTLDYYAIGWFRQAPGKEREWVSSVSSSDGNTLYADSVKGRFTISRDNAKNTVYLQMNSLKAEDTAVYVCAADYSMRPFAVGRWHRDYEYWGQGTQVTVSS
notes: bivalent VHH-Fc
Consider B10, for which the MN100 in [2] came out at 0.25 nM. For the same molecule, the “LVNA IC50” value in test [3] was 1.94 nM. The half-inhibitory concentration (IC50) in [4] stood at 5.4 nM. This molecule also came in with an IC99 in test [4] of 42 nM. Also, the Imax % in [4] is 89%. For the same molecule, the results for the SC50 in [5], in test [6] and in test [7] were 25 ng/mL, 1.7 ng/mL and 16 ng/mL, respectively. Further, the Limit of detection came to 1.4 ng/mL in test [8], 0.15 ng/mL in [9] and 1.37 ng/mL in [10].

B11: NRCoV2-1d VHH (VHH)
VHH: EVQLVESGGGSVQPGGSLRLSCAASGSTLDYYAIGWFRQAPGKEREWVSSVSSSDGNTLYADSVKGRFTISRDNAKNTVYLQMNSLKAEDTAVYVCAADYSMRPFAVGRWHRDYEYWGQGTQVTVSS
B11: the EC50 in test [11] is 1.1 nM and 1.3 nM. In test [12], this molecule came in with an IC50 of 8.6 nM, a 99% effect concentration (IC99) of 40.8 nM and an Imax % of 72%.

B12: NRCoV2-SR02 VHH-Fc (Fc fusion)
chain: EVQLVDSGGGLVQAGGSLRLSCTASEFTLNYYSIGWFRQSPGKEREGVSCIRYSGGGIDYADSVKGRFTISRDNAKNTVYLTMNSLKPEDTAVYYCAADRLYSRACPTAGGRNYWGQGTQVTVSS
notes: bivalent VHH-Fc
Turning to B12, in [2], the MN100 came to 6.25 nM. Further, the “LVNA IC50” value in [3] came to 14.1 nM. In [4], this molecule gave a half-maximal inhibitory concentration (IC50) of 5.8 nM, an IC99 of 49.8 nM and an Imax % of 53%.

B13: NRCoV2-04 VHH-Fc (Fc fusion)
chain: AVQLVDSGGGLVQPGGSLRLSCAASGSPFSNVVMAWYRQAPGKQRERVAFISGGGIADYIMSVKGRFTISRDNAKNTVYLQMNSLKPEDTAVYYCWSSYESTWGQGTQVTVSS
notes: bivalent VHH-Fc
Regarding B13, the MN100 in [2] is 1.25 nM. The “LVNA IC50” value in test [3] turned out to be 1.65 nM. The same molecule came in with an IC50 in test [4] of 11.7 nM. Further, the 99% effect concentration (IC99) in [4] is 420 nM. For the same molecule, in test [4], the Imax % came to 51%. Moreover, the SC50 in test [5] was 39 ng/mL; in test [6] it was 3.3 ng/mL; in test [7], 25 ng/mL. The Limit of detection in test [8] turned out to be 4.1 ng/mL; in test [9], 0.46 ng/mL; in test [10], 4.12 ng/mL.

B14: NRCoV2-SR13 VHH-Fc (Fc fusion)
chain: EVQLVESGGGLVTTGGSLRLSCATSGSRFGSKHMAWYRQAPGKQRDLVAAISSGGSTHYGSSVKGRFTISRDNAKSTVYLQMNSLNPEDTAVFYCNMGGWDYRSNTYIPGSRSDYWGQGTQVTVSS
notes: bivalent VHH-Fc
On to B14, for which the half-maximal inhibitory concentration (IC50) in test [1] turned out to be 7.7 nM; in the test with Human SARS-CoV S, 15 nM.

B15: NRCoV2-SR01 VHH-Fc (Fc fusion)
chain: EVQLVQSGGGSVQAGGSLRLSCVASGFTFDNYAIGWFRQAPGKEREGVSCISGNGGVTIYADSVKGRFTISRDNAKNLVYLQMNSLKPEDTAVYYCAATGIRSTWSVYGCSRLAGPYDYWGQGTQVTVSS
notes: bivalent VHH-Fc
B15 showed an MN100 in test [2] of 6.25 nM. Further, the “LVNA IC50” value in [3] amounted to 9.42 nM. In [4], this molecule showed a concentration for half-maximal inhibition (IC50) of 6.6 nM, an IC99 of 56.9 nM and an Imax % of 59%.

B16: NRCoV2-SR01 VHH-Fc (Fc fusion)
chain: EVQLVQSGGGSVQAGGSLRLSCVASGFTFDNYAIGWFRQAPGKEREGVSCISGNGGVTIYADSVKGRFTISRDNAKNLVYLQMNSLKPEDTAVYYCAATGIRSTWSVYGCSRLAGPYDYWGQGTQVTVSS
notes: bivalent VHH-Fc
For the molecule B16, the 50% inhibitory concentration (IC50) came out at 4.2 nM in test [1] and 5.1 nM with Human SARS-CoV S.

B17: NRCoV2-12 VHH-Fc (Fc fusion)
chain: EVQLQQSGGGLVQAGGSLRLSCAASGRTFRNYVMGWFRQAPQAPGKDHEFVAAISWGGTEIYYADSVKGRFTISRDNAKNTVYLQMNSLKPEDTAVYYCAADRGLSYYYTRTTEYNYWGQGTQVTVSS
notes: bivalent VHH-Fc
On to B17, for which the IC50 in [1] is 3.5 nM; with Human SARS-CoV S, 3.1 nM.

Broadly, the IC50 is the point on the concentration scale where inhibition reaches its midpoint. A high value points to weaker potency. As usually defined, the IC99 is the concentration at which the effect reaches the 99% level. In general, EC50 refers to the concentration giving half of the maximal effect.
